Test results as given in US20050084449A1 (CELLDEX THERAPEUTICS, published 2005).

T1: TIM-1 antigen, cell membrane-bound (on ACHN, CAKI-2, CAKI-1 renal cancer cells and polarized/activated human … (human, UniProt Q96D42 21-364))
T1 construct: whole, on cells; Endogenous protein on cells; also called HAVcr-1; KIM-1
T1 sequence (looked up): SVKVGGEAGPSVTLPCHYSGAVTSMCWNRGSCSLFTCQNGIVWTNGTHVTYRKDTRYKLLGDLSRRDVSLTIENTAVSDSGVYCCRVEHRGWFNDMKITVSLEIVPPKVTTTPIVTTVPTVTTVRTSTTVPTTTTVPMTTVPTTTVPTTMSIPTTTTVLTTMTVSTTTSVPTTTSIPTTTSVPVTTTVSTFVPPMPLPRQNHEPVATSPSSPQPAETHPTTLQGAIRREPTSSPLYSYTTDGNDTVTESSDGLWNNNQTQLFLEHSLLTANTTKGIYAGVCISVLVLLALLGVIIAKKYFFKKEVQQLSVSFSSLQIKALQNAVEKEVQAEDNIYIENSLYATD

T2: TIM-1 peptide I) HEPVAT (human)
T2 peptide: HEPVAT

T3: TIM-1 peptide G) PRQNHEPVAT (human)
T3 peptide: PRQNHEPVAT

T4: TIM-1 peptide E) PMPLPR (human)
T4 peptide: PMPLPR

T5: TIM-1 peptide H) QNHEPVAT (human)
T5 peptide: QNHEPVAT

T6: TIM-1 peptide D) PMPLPRQN (human)
T6 peptide: PMPLPRQN

T7: synthetic peptide PMPLARQNHE (SEQ ID NO:99)
T7 peptide: PMPLARQNHE

T8: synthetic peptide PMPLPRQAHE (SEQ ID NO:102)
T8 peptide: PMPLPRQAHE

B1: anti-TIM-1 mAb 2.59 (antibody, human IgG4, V domains shown)
VH: QSGPRLVKPSQTLSLTCTVSGGSISSDGYYWSWIRQHPGKGLEWIGYIYYSGSTFYNPSLKSRVAISVDTSKNQFSLKLSSVTAADTAVYYCARESPHSSNWYSGFDCWGQGTLVTVSS
VL: TQSPDFQSVTPKEKVTITCRASQSIGSRLHWYQQKPDQSPKLLIKYASQSFSGVPSRFSGSGSGTDFTLTINSLEAEDAATYYCHQSSNLPFTFGPGTKVDIKR
notes: Biotinylated for IHC
B2: anti-TIM-1 mAb 1.29 (antibody, human IgG2, V domains shown)
VH: QVQLQESGPGLVKPSETLSLTCTVSGGSVSSGGYYWSWIRQPPGKGLEWIGFIYYTGSTNYNPSLKSRVSISVDTSKNQFSLKLSSVTAADAAVYYCARDYDWSFHFDYWGQGTLVTVSS
VL: DIQMTQSPSSLSASIGDRVTITCRASQGIRNDLGWYQQKPGKAPKRLIYAASSLQSGVPSRFSGSGSGTEFTLTISSLQPEDFATYYCLQHNSYPLTFGGGTKVEIKR
B3: anti-TIM-1 mAb 2.70 (antibody, V domains shown)
VH: QVQLVESGGGVVQPGRSLRLSCAASGFIFSRYGMHWVRQAPGKGLKWVAVIWYDGSNKLYADSVKGRFTISRDNSKNTLYLQMNSLRAEDTAVYYCARDYYDNSRHHWGFDYWGQGTLVTVSS
VL: DIVMTQTPLSLPVTPGEPASISCRSSRSLLDSDDGNTYLDWYLQKPGQSPQLLIYTLSYRASGVPDRFSGSGSGTDFTLKISRVEAEDVGVYYCMQRVEFPITFGQGTRLEIKR
notes: Subclone 2.70.2 is treated as the same antibody because its printed variable regions are identical; also called 2.70.2 (subclone); TIM-1 2.70.2
B4: anti-TIM-1 mAb 2.16 (antibody, V domains shown)
VH: EQSGGGVVKPGGSLRLSCAASGFTFSNAWMTWVRQAPGKGLEWVGRIKRRTDGGTTDYAAPVKGRFTISRDDSKNTLYLQMNNLKNEDTAVYYCTSVDNDVDYWGQGTLVTVSS
VL: not shown
notes: also called 2.16.1 (subclone)

Key:
[1] = target: T1, TIM-1 antigen, cell membrane-bound (on …); assay: FACS on ACHN cells, normalized to isotype control pK16
[2] = target: T1, TIM-1 antigen, cell membrane-bound (on …); assay: FACS on CAKI-2 cells, normalized to isotype control pK16
[3] = target: T1, TIM-1 antigen, cell membrane-bound (on …); assay: FACS on polarized human CD4+ Th2 cells, 10 ug/mL mAb
Procedure: Mononuclear cells were isolated from human blood diluted 1:1 in PBS, by spinning over Ficoll for 20 minutes. […] 20 μL of CD4 Miltenyi beads were added per 107 cells and incubated for 15 minutes on ice. Cells were washed with a 10-fold excess volume of Miltenyi buffer. A positive selection column (type VS+) (Miltenyi Biotec Inc., Auburn, Calif.) was washed with 3 mL of Miltenyi buffer. The pelleted cells were re-suspended at 10^8 cells per mL of Miltenyi buffer and applied to the washed VS column. The column was then washed three times with 3 mL of Miltenyi buffer. Following this, the VS column was removed from the magnetic field and CD4+ cells were eluted from the column with 5 mL of Miltenyi buffer. […] Cells were spun down and supernatant removed. Cells were blocked with 20% goat serum in FSB for 30 minutes on ice. Cells were washed as above and incubated with 10 μg/mL of primary human anti-TIM-1 mAb or control PK16.3 mAb in FSB (200 μL) for 45 minutes on ice followed by washing. Secondary goat anti-human PE conjugated antibody was added at 1:50 dilution for 45 minutes on ice in the dark, washed, resuspended in 500 μL of PBS containing 1% formaldehyde and kept at 4° C. until flow cytometry analysis was performed.
Data is reported as the geometric mean of the fluorescence intensity.

TIM-1 peptide I) HEPVAT = target: T2, TIM-1 peptide I) HEPVAT; assay: peptide ELISA
Source text: (§1) Assay plates were coated with the TIM-1 fragment peptides, using irrelevant peptide or no peptide as controls. […] Human antibody not specific to TIM-1, an isotype control antibody or no antibody served as controls.

[4] = target: T3, TIM-1 peptide G) PRQNHEPVAT; assay: peptide ELISA
Source text: as §1

TIM-1 peptide E) PMPLPR = target: T4, TIM-1 peptide E) PMPLPR; assay: peptide ELISA
Source text: as §1

[5] = target: T5, TIM-1 peptide H) QNHEPVAT; assay: peptide ELISA
Source text: as §1

[6] = target: T6, TIM-1 peptide D) PMPLPRQN; assay: peptide ELISA
Source text: as §1

[7] = target: T7, synthetic peptide PMPLARQNHE (SEQ ID …); assay: peptide ELISA, alanine scan
[8] = target: T8, synthetic peptide PMPLPRQAHE (SEQ ID …); assay: peptide ELISA, alanine scan

Binder | Geo Mean Ratio (relative to negative control) [1] [ratio] | Geo Mean Ratio (relative to negative control) [2] [ratio] | Geometric mean of fluorescence intensity [3] | binding result (TIM-1 peptide I) HEPVAT) | binding result [4] | binding result (TIM-1 peptide E) PMPLPR) | binding result [5] | binding result [6] | binding result [7] | binding result [8]
B1 | 15.2 | 7.7 | 22 | – | – | – | – | – | – | –
B2 | 17.9 | – | 22.3 | – | – | – | – | – | – | –
B3 | 19.4 | 8.8 | 27.8 | no binding | no binding | no binding | no binding | no binding | no binding | no binding
B4 | 7.9 | – | – | – | – | – | – | – | – | –
